PMC4102529, “FRET Based Quantification and Screening Technology Platform for the Interactions of Leukocyte Function-Associated Antigen-1 (LFA-1) with InterCellular Adhesion Molecule-1 (ICAM-1)” (PLoS ONE, 2014)

Target: human recombinant ICAM-1 (D1-D2-Fc), Alexa Fluor 555 conjugate (human) (UniProt P05362)
Test: FRET or BRET; steady-state, in solution competition screening, 96-well plate; Alexa Fluor 488-LFA-1 (100 nM) mixed with peptide (0.02, 0.2, 2, 20 µM), then incubated with Alexa Fluor 555-D1-D2-Fc (100 nM) for 30 min in the dark; PBS pH 7.4, 1 mM EGTA, 2 mM Mg2+; inhibition efficiency from the FRET efficiency

Chain of human recombinant ICAM-1 (D1-D2-Fc), Alexa Fluor 555 conjugate (human) (P05362 28-532): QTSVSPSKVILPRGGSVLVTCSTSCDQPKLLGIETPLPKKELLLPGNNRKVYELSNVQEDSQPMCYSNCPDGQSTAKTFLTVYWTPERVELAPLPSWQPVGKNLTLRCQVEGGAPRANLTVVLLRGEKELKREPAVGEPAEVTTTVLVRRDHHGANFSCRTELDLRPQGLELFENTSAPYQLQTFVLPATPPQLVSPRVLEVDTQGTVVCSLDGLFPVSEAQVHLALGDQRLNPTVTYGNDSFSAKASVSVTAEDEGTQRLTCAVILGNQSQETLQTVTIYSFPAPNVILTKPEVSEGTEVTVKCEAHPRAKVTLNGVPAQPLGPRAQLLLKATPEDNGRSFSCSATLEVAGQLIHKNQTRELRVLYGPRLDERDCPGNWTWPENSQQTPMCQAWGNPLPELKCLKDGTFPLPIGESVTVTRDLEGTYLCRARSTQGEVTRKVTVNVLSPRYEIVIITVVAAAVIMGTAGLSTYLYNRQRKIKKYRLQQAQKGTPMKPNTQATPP

Row | inhibition efficiency of the LFA-1/D1-D2-Fc interaction at 0.02 µM peptide [%] | inhibition efficiency of the LFA-1/D1-D2-Fc interaction at 0.2 µM peptide [%] | inhibition efficiency of the LFA-1/D1-D2-Fc interaction at 2 µM peptide [%] | inhibition efficiency of the LFA-1/D1-D2-Fc interaction at 20 µM peptide [%] | Binder
1 | 40.8 | 47 | 53.2 | 65.1 | ITDGEATDSGNIDAAKDIIRYIIGI [CD11a(237–261) peptide]
2 | 12.2 | 20.3 | 36.5 | 51.4 | APLFYGEQRG [CD11a(456–465) peptide]
